Laboratory results published in patent US20250313612A1 (Adimab, published 2025).
Numbering of substitutions follows the chain as printed.

B1: ADI-14527 (antibody, V domains shown)
VH: QVQLVQSGAELKRPGSSVKVSCKASGVYLTSVAVNWVRQVPGHGFEWMGGILTGFGKVRHAQAFENRATLTADASTNTAYLELSGLQAEDTAAYYCAIIDPQDCTAASCFWVNWLDPWGQGTLVTVSS
VL: EIVLTQSPGTLTVSPGERATLSCRASQSVLSSHLAWYQQKPGQAPRLLIYAASSRATDVPDRFSGSGSGTDFTLTISRLEPQDFAVYYCQQYGSSPITFGQGTRLEIK
notes: IgG; also called Antibody Number 87
B2: ADI-14535 (antibody, V domains shown)
VH: QVQLQQWGPGLVKPSQTLSLTCSVSGASVKIGSNFWTWIRQRPGKGLEWIGAIHDTGTTYYNPSLEPQVIISTDTSQNQFSLRLTSVTAADTAVYYCARGRGYTYGWRYFDYWGQGTLVTVSS
VL: SYVLTQPPSVSVSPGQTARITCSGDALPKQYAFWYQHKAGQAPVLVIKKDTERPSGIPERFSGSISGTTATLIISGVQAEDEADYYCQSSDSSGNVVLFGGGTQLTVL
notes: IgG; also called Antibody Number 95
B3: ADI-14529 (antibody, V domains shown)
VH: EVQLVESGGGLVKPGGSLRLSCAASGFIFRNAWMSWVRQAPGKGLEWVGRIKRTSEGGSVDYATPVQGRFSISRDDSRNTLYLQMNSLETDDTAVYYCSTGPPYSYFDSSGYSVVDYWGQGTLVTVSS
VL: QSVVTQPPSVSGTPGQRVTISCTGSSSNIGTPFDVHWYQQIPETAPKLIISGGFSRPSGVPDRFSGSQSGTSASLAISGLRSEDEGDYYCAAWDDSLSGPVFGGGTKLTVL
notes: IgG; also called Antibody Number 89
B4: ADI-14532 (antibody, V domains shown)
VH: B3 VH with N79K, Q120L
VL: SYELTQPPSASGTPGQRVTISCSASSSNIGDNYFYWYQQLPGKAPTLLMYGSDQRSSGVPDRFSGSQSGTSASLAISGLRSEDEADYYCAAWDDSLSGPVFGGGTQLTVL
notes: IgG; also called Antibody Number 92
B5: ADI-14537 (antibody, V domains shown)
VH: B3 VH with N79K, Q120L
VL: B4 VL with S1Q, Y2P, E3V, Q106K
notes: IgG; also called Antibody Number 97
B6: ADI-14558 (antibody, V domains shown)
VH: QVQLVESGGGLIQPGASLRLSCGAYGFSFSSSAMSWVRQAPGKGLEWVSAISDNGGSTYYADSVQGRFTISRDNSKNTLYLQLNRLRAEDTAIYYCAKAYCSDSCHGGYFDYWGQGTLVTVSS
VL: EIVLTQSPATLSLSPGDRATLSCRASQSVSSSFAWYQQKPGQAPRLLIYAVSNRATGIPARFSGSGSGTDFTLTISTLEPEDFAVYYCQQRSTWPLTFGPGTKVEIK
B7: ADI-14531 (antibody, V domains shown)
VH: QVQLVQSGAEVKKPGSSVKVSCKASGVILTSVAVSWVRQAPGKGFEWMGGILPGFNKVRHAQDFENRATHTADASTNTVYMELSGLKSEDTAVYYCAIIDPQDCTRASCFWVNWLAPWGQGTLVTVSS
VL: ETTLTQSPGTLTLSPGERATLSCRASQSVPSRNLAWYQQKPGQAPRLIIYAASNRATDIPDRFSGSGSGTDFTLTISRLEPQDFAVYYCQQYETSPITFGQGTKVDIK
notes: IgG; also called Antibody Number 91
B8: ADI-14526 (antibody, V domains shown)
VH: EVQLVESGPGLVRPSQTLSIKCSVSGGSINRGAYFWTWIRQRPGKGLEWIGSIHDTGSYYNPSLKTRVSISGDTSKNLFTLELTSLTAADTAVYYCARGRGYSYGWRYFDSWGQGTLVTVSS
VL: SYVLTQPPSVSVSPGQTARITCSGDAFPRQYSYWYQQKAGQPPVLVILKDSERPSGIPARFSGSTSGTTVTLTITGVQAEDEADYYCQSSDSSGNYVVFGGGTKLTVL
notes: IgG; also called Antibody Number 86
B9: ADI-14557 (antibody, V domains shown)
VH: QVQLQQWGAGLLKPSETLSLTCQVYGVSFSDYYWNWIRQSPGKGLEWIGDVNHIGNTDYNPSLKSRVSISVDTSKNQFSLTLRSVTAADTALYYCARGRKLFEVPPKAPDYWGQGTLVTVSS
VL: DIVMTQSPGTLSLSPGERATLSCRASQSVSSTYLAWYQQKPGQAPRLLIYGASIRATGIPDRFSGVGSGTDFTLTISRLEPEDVAVYYCQQYGSSPQTFGQGTKVEIK
B10: ADI-14556 (antibody, V domains shown)
VH: EVQLVESGGGLVQPGGSLRLSCAASGFTFRSYWMTWVRQAPGKGLEWVASINDEGNTKYYVDSLKGRFTISRDNAKNSLYLQMNSLRAEDTAVYYCARESGLPRGAFQIWGPGTMVTVSS
VL: EIVLTQSPVTLSLSPGERATLSCRASQSVGTFLAWYQHKPGQAPRLLIYDASNRASAIPARFSGSGSGTDFTLTISSLEPEDFAVYYCQHRSDWWTFGQGTKVEIK
B11: ADI-14563 (antibody, V domains shown)
VH: QVQLVQSGGGLAQPGGSLRLSCAASGFIFSVYEMDWVRQAPGKGLEWLSYIDITGNSVTYADSVRGRFTISRDNARNSLYLQMDSLRVEDTAVYYCVRDSRGPTTQWLTGYFDFWGQGTTVTVSS
VL: DIRMTQSPATLSLSPGERATLSCRASQSVSNYLAWYQQKPGQAPRLLIYDVSNRATGIPARFSGSGSGTDFTLTISSLEPEDFAVYYCQQRRNWPPLTFGGGTKVEVK
B12: ADI-14528 (antibody, V domains shown)
VH: QVQLVQSGAEVKKPGSSVKVSCKVAGGSFSNYAIAWLRQAPGQGLEWMGGIIPAFNRAMYARKFQDRVTITAYASTTTAYLDITGLRSEDTALYYCARPAGDFGDLKWVRSPFDYWGQGTLVTVSS
VL: ETTLTQSPGTLSVSPGERATLSCRASQEVGINLAWYQQKPGQAPRLLIYGASTRATDVPARFSGSGSGTEFTLTISSLQSEDFAVYYCQEYNDWPPQLTFGPGTKVDIK
notes: IgG; also called Antibody Number 88
B13: ADI-14530 (antibody, V domains shown)
VH: QVQLVQSGAEVKKPGSSVKVSCKVVGGSFSNYGIGWVRQAPGQGPEWMGGIIPAFKTAKYAKKFQDRVTITADESSSTAYMEVRGLRPDDTALYYCARPEGDFGDLKWVRSPFDYWGQGTLVTVSS
VL: B12 VL with G9A, A19V, E28D, G30S, E70D, V85F, D107E
notes: IgG; also called Antibody Number 90
B14: ADI-14562 (antibody, V domains shown)
VH: EVQLVESGPEVKGPGSSVKVSCEASAATFSNYAISWVRQAPGQGLEWMGGFVPMLGTRNYAQKFKGRVTLTADVSTHTLYLEIGSLRFEDTAVYYCATVAGLGTSYGRYLESWGQGTLVTVSS
VL: DIRMTQSPSSVSASLGDRVTITCRASQDISTALAWYQQIPGKAPKLLIYEASSLQSGVPSRFRGSGSETDFALTISSLQPEDFATYYCQQAKSFPYTFGQGTKVEIK
B15: ADI-14534 (antibody, V domains shown)
VH: EVQLVESGGGVVQPGRSLRLSCAVSGFTFSNFGMHWVRQAPGKGLEWVAAISYDGRKRFQADSVKGRFTISRDNLKNTLNLQMNSLKTEDTAVYYCAKSSRLLDWLYNMDFWGQGTTVTVSS
VL: SYVLTQPPSVSVAPGKTARITCGGNILGSSSVHWFQQKAGQAPVLVIYYDSDRPSGIPERFSGSHSGDTATLTISRVEVGDEADYYCQVWDNSNSQGVFGGGTQLTVL
notes: IgG; also called Antibody Number 94
B16: ADI-14538 (antibody, V domains shown)
VH: B15 VH with R58T, T69I, L102F
VL: B15 VL with V3E, V12E, R19T, N25I, S29T, A39S, N94H
notes: IgG; also called Antibody Number 98
B17: ADI-14551 (antibody, V domains shown)
VH: QVQLQESGPGLVKPSETLSLTCSVSGGSIKRGAYFWTWIRQRPGKGLEWIGSMHDSGDYYNPSLKTRVTILGDTTKNHFTLKLTSVTVADTALYYCARGRGYSYGWRFFDNWGQGTLVTVSS
VL: NFMLTQPPSVSVSPGHSTRITCSGDALPKQYAYWYQQKPGQAPVLIMSKDSERPSGIPERFTGSSSGTTVTLTISGVQAEDEADYYCQSGDTSGSYVVFGGGTKVTVL
notes: IgG

Molecular target: RSV F protein of subtype A (strain A2) on recombinant mKate-RSV (Respiratory syncytial virus subtype A …, UniProt P03420 26-574)
Experiment: cell-based or functional assay

Binder | Neut IC50 (µg/ml) subtype A [µg/mL]
B1 | > 10
B2 | > 10
B3 | 2.38
B4 | 0.168
B5 | 0.272
B6 | > 10
B7 | > 10
B8 | 2.36
B9 | > 10
B10 | > 10
B11 | > 10
B12 | > 10
B13 | > 10
B14 | > 10
B15 | > 10
B16 | > 10

Molecular target: RSV F protein of subtype B (18537) on recombinant mKate-RSV (Respiratory syncytial virus subtype B …, UniProt P13843 26-574)
Experiment: cell-based or functional assay

Binder | Neut IC50 (µg/ml) subtype B [µg/mL]
B1 | > 10
B2 | > 10
B3 | 0.991
B4 | 0.208
B5 | 0.292
B6 | > 10
B7 | > 10
B8 | 9.67
B9 | > 10
B10 | > 10
B11 | > 10
B12 | 0.705
B13 | > 10
B14 | 10.5
B15 | > 10
B16 | > 10

Molecular target: T1, RSV F ectodomain stabilized in the postfusion conformation (F ΔFP), subtype A (Respiratory syncytial virus subtype A, UniProt P03420 26-109; P03420 147-524)
T1 construct: extracellular domain; trimer; also called Postfusion subtype A; Postfusion RSV F
Experiment: BLI, IgG on AHQ sensors, 100 nM antigen

Binder | Kd [pM]
B1 | 889
B2 | 230
B3 | 1710
B4 | 224
B5 | 211
B7 | 12600
B8 | 346
B17 | 207
B12 | 35200
B13 | 47200
B15 | 1000
B16 | 350

Molecular target: T2, RSV F ectodomain stabilized in the postfusion conformation (F ΔFP), subtype B (Respiratory syncytial virus subtype B, UniProt P13843 26-109; P13843 147-524)
T2 construct: extracellular domain; trimer; also called Postfusion subtype B
Experiment: BLI, IgG on AHQ sensors, 100 nM antigen

Binder | Kd [pM]
B1 | 645
B2 | 238
B3 | 798
B4 | 136
B5 | 142
B7 | 23800
B8 | 342
B17 | 195
B13 | 37600
B15 | 930
B16 | 154
